Source: US20230085393A1

B1: ZIKV-120765-491 (antibody, V domains shown)
VH: EVQLVESGGGLVQPGGSLRLSCAASGFTFIRYAMSWVRQAPGKGLEWVSDISGSGGSTFYADSVKGRFTISRDNSKNTLYLQMNSLRAEDTAVYYCARDDEGYTTNWYDAYDIWGQGTMVTVSS
VL: DIQMTQSPSSLSASVGDRVTITCRASQSIGSYLNWYQQRPGKAPKLLIYTASSLQSGVPSRFSGSGSGTDFILTISSLQPEDFATYYCQQNYNIPQVTFGPGTKVDIK
B2: ZIKV-120764-350 (antibody, V domains shown)
VH: DVQLVESGGGLIQPGGSLRLSCAASGFTARTNYMTWVRQAPGKGLEWVSVIYSGGSTIYADSVKGRFTISRDNAKNSLYLQMNSLRAEDTAVYYCARDRGYLDHWGQGTLVTVSS
VL: EIVLTQSPATLSLSPGERATLSCRASQSVTNYFAWYQQRPGQAPRLLIYDVSNRATGIPARFSGSGSGTDFTLTISSLEPEDFAVYYCQQRSNWPYTFGQGTKVEIK

What was measured:
[1] = molecular target: ZIKV Dakar strain virus (African lineage), E2 antigen on virions (Zika virus)
[2] = molecular target: ZIKV Brazil strain virus (Asian lineage), E2 antigen on virions (Zika virus)

Row | Binder | IC50, RTCA cellular impedance neutralisation assay on Vero cells [1] [µg/mL] | IC50, RTCA cellular impedance neutralisation assay on Vero cells [2] [µg/mL]
1 | B1 | < 0.1 | < 0.1
2 | B2 | < 0.1 | < 0.1
